According to publication doi:10.64898/2025.12.08.693004 (bioRxiv, 2025):

T1: Rat EphB1-Fc protein (rat, UniProt P09759 18-538)
T1 sequence (looked up): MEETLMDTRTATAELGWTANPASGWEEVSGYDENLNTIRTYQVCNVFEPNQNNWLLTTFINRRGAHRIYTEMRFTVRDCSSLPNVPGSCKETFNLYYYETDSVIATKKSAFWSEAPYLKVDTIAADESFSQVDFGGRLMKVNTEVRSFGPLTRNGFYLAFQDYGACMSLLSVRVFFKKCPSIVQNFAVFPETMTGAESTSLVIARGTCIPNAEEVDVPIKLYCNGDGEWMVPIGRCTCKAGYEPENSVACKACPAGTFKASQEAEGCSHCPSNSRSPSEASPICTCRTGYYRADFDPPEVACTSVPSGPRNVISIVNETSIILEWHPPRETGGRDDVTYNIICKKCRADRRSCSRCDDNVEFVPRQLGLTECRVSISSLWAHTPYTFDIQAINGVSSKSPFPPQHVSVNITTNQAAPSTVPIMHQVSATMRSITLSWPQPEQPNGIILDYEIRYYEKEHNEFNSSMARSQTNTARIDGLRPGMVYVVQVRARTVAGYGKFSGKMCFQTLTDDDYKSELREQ

T2: Human EphB3-Fc (human, UniProt P54753 38-550)
T2 sequence (looked up): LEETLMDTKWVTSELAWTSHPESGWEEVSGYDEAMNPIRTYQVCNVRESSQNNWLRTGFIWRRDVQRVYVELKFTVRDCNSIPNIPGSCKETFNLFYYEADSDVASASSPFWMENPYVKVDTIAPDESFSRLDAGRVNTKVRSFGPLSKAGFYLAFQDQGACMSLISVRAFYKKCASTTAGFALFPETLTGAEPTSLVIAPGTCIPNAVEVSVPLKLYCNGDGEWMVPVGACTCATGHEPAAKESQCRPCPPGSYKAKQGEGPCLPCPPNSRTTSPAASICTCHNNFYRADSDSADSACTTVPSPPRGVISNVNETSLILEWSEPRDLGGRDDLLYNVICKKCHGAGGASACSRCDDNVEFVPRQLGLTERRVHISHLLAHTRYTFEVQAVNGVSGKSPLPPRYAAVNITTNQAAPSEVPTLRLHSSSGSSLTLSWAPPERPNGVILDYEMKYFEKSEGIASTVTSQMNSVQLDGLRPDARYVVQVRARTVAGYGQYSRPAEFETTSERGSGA

T3: Human EphB2-His (human, UniProt P29323 19-543)
T3 sequence (looked up): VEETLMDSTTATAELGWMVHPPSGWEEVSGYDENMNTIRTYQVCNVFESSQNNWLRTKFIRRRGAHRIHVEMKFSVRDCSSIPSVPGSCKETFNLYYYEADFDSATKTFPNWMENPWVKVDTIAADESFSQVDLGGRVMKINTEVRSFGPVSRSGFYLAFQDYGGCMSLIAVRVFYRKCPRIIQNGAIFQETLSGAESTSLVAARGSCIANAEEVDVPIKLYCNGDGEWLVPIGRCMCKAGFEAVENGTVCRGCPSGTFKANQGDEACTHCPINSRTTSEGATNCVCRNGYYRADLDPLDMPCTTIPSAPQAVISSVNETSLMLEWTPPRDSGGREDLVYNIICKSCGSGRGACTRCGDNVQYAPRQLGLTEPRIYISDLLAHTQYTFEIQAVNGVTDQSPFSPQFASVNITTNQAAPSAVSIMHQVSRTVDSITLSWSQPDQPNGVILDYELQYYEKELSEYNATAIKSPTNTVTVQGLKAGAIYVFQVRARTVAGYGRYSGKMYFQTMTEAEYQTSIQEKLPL

T4: Human EphB1-His (human, UniProt P54762 18-540)
T4 sequence (looked up): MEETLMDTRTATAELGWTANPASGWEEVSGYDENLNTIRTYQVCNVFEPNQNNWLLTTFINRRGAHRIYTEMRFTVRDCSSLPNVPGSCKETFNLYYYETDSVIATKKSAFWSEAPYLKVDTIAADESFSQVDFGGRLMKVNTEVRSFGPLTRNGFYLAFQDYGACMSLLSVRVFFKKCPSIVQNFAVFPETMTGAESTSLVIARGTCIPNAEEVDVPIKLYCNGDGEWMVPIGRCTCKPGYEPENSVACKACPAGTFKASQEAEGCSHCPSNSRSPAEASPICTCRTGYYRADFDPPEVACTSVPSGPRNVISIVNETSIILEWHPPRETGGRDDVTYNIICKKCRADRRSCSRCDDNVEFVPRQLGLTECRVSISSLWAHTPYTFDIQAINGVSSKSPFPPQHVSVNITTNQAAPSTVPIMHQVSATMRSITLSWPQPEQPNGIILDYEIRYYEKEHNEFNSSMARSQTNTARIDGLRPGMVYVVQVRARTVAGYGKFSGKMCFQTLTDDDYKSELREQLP

T5: Human EphB4-His (human, UniProt P54760 16-539)
T5 sequence (looked up): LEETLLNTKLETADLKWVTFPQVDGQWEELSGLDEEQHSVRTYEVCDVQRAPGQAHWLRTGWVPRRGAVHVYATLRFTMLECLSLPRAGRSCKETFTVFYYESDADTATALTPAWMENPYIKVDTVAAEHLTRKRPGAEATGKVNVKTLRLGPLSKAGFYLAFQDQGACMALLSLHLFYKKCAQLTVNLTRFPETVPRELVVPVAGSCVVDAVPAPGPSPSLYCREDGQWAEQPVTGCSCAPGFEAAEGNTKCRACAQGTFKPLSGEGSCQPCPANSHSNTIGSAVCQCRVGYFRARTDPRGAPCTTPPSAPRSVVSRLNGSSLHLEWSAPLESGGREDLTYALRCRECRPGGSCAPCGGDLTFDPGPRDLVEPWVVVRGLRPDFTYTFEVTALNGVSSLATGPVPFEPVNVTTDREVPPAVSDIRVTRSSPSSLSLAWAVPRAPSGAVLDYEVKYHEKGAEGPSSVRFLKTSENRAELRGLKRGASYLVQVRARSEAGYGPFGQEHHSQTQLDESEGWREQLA


How the values were obtained:
Assay in all cases: BLI
Rat EphB1-Fc protein = target: T1, Rat EphB1-Fc protein
Human EphB3-Fc = target: T2, Human EphB3-Fc
Human EphB2-His = target: T3, Human EphB2-His
Human EphB1-His = target: T4, Human EphB1-His
Human EphB4-His = target: T5, Human EphB4-His

binding result (Rat EphB1-Fc protein)	binding result (Human EphB3-Fc)	binding result (Human EphB2-His)	binding result (Human EphB1-His)	binding result (Human EphB4-His)	Binder
binds	binds	–	–	–	Mouse EphrinB2-His protein (ligand, UniProt P52800 29-232, looked up) RSIVLEPIYWNSSNSKFLPGQGLVLYPQIGDKLDIICPKVDSKTVGQYEYYKVYMVDKDQADRCTIKKENTPLLNCARPDQDVKFTIKFQEFSPNLWGLEFQKNKDYYIISTSNGSLEGLDNQEGGVCQTRAMKILMKVGQDASSAGSARNHGPTRRPELEAGTNGRSSTTSPFVKPNPGSSTDGNSAGHSGNNLLGSEVALFA
–	–	binds	binds	binds	Human EphrinB2-Fc (Fc fusion, UniProt P52799 28-229, looked up) IVLEPIYWNSSNSKFLPGQGLVLYPQIGDKLDIICPKVDSKTVGQYEYYKVYMVDKDQADRCTIKKENTPLLNCAKPDQDIKFTIKFQEFSPNLWGLEFQKNKDYYIISTSNGSLEGLDNQEGGVCQTRAMKILMKVGQDASSAGSTRNKDPTRRPELEAGTNGRSSTTSPFVKPNPGSSTDGNSAGHSGNNILGSEVALFA
